Assay results taken from the nanobody polyreactivity screen of Harvey et al. (2022).

Assay: yeast display, Sf9 membrane polyspecificity reagent, FACS + sequencing; frameworks hold sequencing errors
Procedure, shortened: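 Polyreactivity labels are assigned by the sorting gate from which each nanobody was recovered. The gates were low and high (top ~1%), set on anti-HA fluorescence for expression and streptavidin fluorescence for reagent binding. Before sorting, galactose-induced (36–48 hours) yeast display cells were stained for 1 hour at 4 °C with 10% biotinylated, detergent-solubilized Sf9 membrane reagent.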

Sequence | polyreactivity (PSR sort gate)
QVQLVESGGRLVQAGGSLRLSCAASGSIFALYAMGWYRQQPGKVRELVAAIRRGTSTKYADSVKGRFTISRDNAKNTVNLHMKSLKPEDTAVYYCNARYYYCSSISRWSDYWVQGTQVTVSS | high polyreactivity
QVQLVESGGRLVQAGGSLRLSCAASGSIFFSNAMGWYRQAPGKERELVAAITSTGGSTYYADSVKGRFTISRDNAKNTVYLQMNSLKPEDTAVYYCAAASRRGYYYWGQGTQVTVSS | high polyreactivity
QVQLVESGGRLVQAGGSLRLSCAASGSIFLKYAMRWYRQAPGKERELVAAISSAGRTYYADSVKGRFTISRDNAKKTVYLQMNSLKPEETAVSYCAARYPYDWRHDYWGQGTQVTVSS | low polyreactivity
QVQLVESGGRLVQAGGSLRLSCAASGSIFTPYAMGCYIQAPGKERELVAAIRSVVRTNYADSVKGRFTISRDNAKNTVYLQLNSLNPEDTAVYYCATAVYPDFEYDSWGQGTQVTVSS | low polyreactivity
QVQLVESGGRLVQAGGSLRLSCAASGSIFVKYAMGWYRPAPGKERELVAAISGSGGSTYYADSVKGRFTISRDNAKTTVYLEMNSLKPEDTAVYYCAADDYFYSGRYGFEFWGHGTQVTVSS | low polyreactivity
QVQLVESGGRLVQAGGSLRLSCAASGSIFYFNAMGWYRQAPGKERELVATISRRGGSTYYADSVKGRFTISRDNAKKTVYLQMNSLKPEDTAVYYCAADYYTLYPVYIKRYGYWGQGTQVTVSS | high polyreactivity
QVQLVESGGRLVQAGGSLRLSCAASGSIISWYAMGWYRQAPGKERELVAAISNSGGSTYYADSVKGRFTISRDNAKNTVYLQMNSLKPEDTAVYYCAAYDGDTYDWGQGTQVTVSS | high polyreactivity
QVQLVESGGRLVQAGGSLRLSCAASGSILYIYAMGWYRQAPGKERELVAAISKNSADTYYADSVKGRFTISRDNAKNTVYLQMNSLKPEDTAVYYCAADVVKVAAYNYWGQGTQVTVSS | low polyreactivity
QVQLVESGGRLVQAGGSLRLSCAASGSTFDNNAMGWYRQAPGKEREFVAAITYSGGGSTSYADSVKGRFTISRDNAKNTVYLQMNSLKAEDTAVYFCAARDFETDGYTLVAYIYWGQGSQVTVSS | low polyreactivity
QVQLVESGGRLVQAGGSLRLSCAASGSTFGVNTKGWYRQAPGKEREFVAAITYGGGGTYYADSVKGRFTISRDNAKNTVYLQMNSLKPEDTAVYYCAARRAPKYYWGQGTQVTVSS | high polyreactivity
QVQLVESGGRLVQAGGSLRLSCAASGSTFHDYAMGWYTPAPGKERELVAAIYNSGGSTYYADSVKGRFSISLDNAQNTVYLQMNRLKPEDSAVYYWAADVSWYWYYEYWGQGTQVTLSS | low polyreactivity
QVQLVESGGRLVQAGGSLRLSCAASGSTFWYYAMGWYRQAPGKERELVASITYSGGSTYYADSVKGRFTISRDTAKNTVYLQMNSLKPEDTAVYYCAAEGYYSNYHYWGQGTQVTVSS | low polyreactivity
QVQLVESGGRLVQAGGSLRLSCAASGSTFYFYAMGWYRQEPGKERELVAAISFTDTSTYYADSVKARFTISRDNAKNNVYLQMNSLKPEDTAVYYCAADSDYWGQGTQVTVSS | high polyreactivity
QVQLVESGGRLVQAGGSLRLSCAASGYIFYPNVMGWYRQAPGKERELVAAISSSGGSTYYADSVKGRFTISRDNAKNTVYLQMNSLKPEDTAVYYCAARSLRYADYRSSYQKDMYYWGQGTQVTVSS | low polyreactivity
QVQLVESGGRLVQAGGSLRLSCAASGYIVTIYAMGWYRQAPGKEREFVAAITWSGGRTYYADSVKGRFTISRDNPKNTVYIQRNSLTPEDTAVYYCDARVANYLSQMYYWGQGTQVTVSS | high polyreactivity
QVQLVESGGRLVQAGGSLRLSCAPSGRTFGVYAMGWYRQAPGKERELVAVISSSSGSTYYADSVKGRFTISRDNAKNTVYLQMNSLKPEDTAVYYCAADFFYESFRDDYWGQGTQVTVSS | low polyreactivity
QVQLVESGGRLVQAGGSLRLSCASSGSTFVPNDMGLYRQAPGKERELVAAISRSGDDTYYADSVKGRFTISRDNAKNNVYLQMNSLKPVYTAVYYCAASAGYAYNYWGQGTQVTVSS | low polyreactivity
QVQLVESGGRLVQAGGSLRLSCDASGRTFYTNAMGWYRQEPGKEMELVAAISGRGSTYYADSVTGRFTISRDNAKNTVYLQMNSLKPEDTAVYYCAALLPGRSSSDYWGQGTQVTVSS | high polyreactivity
QVQLVESGGRLVQAGGSLRLSCSASGRICAYYAKGWYRQAPGKDRELVADSTYADSVKGRFTISRDNAKNTVYLQMKSLKPEYTAVYYCAVDYHFFLSRTYLPGSKYDFWGLGTQVTVSS | low polyreactivity
QVQLVESGGRLVQAGGSLRLSSAASGSTFVDYDMGWDRQAPGKERELVAAISGSGGRTYYADSVKGRFTISRDTAKNTVYLQLISVKPEDTAVYYCAAVNAGGELAYWGQGTQVTVSS | high polyreactivity
QVQLVESGGRLVQAGGSLRLSSAASGSTFYVYTMGWYRQAPGKEWELVAAISSGSSTNYADSVKGRFTISRDNAKNTVYLQMNSLQPEDTAVYYCAATRFSYVFPYRYDYWGQGTQVTVSS | low polyreactivity
QVQLVESGGRLVQAGGSLRRSCAASGSTFASNAMRWYRPAPGKERELVAAITSRDASTYYADSVKGRFTISRDNAKNTVYLQMNSLKPEDTAVYYCATDGYSPAAFDYWGQGTQVTVSS | low polyreactivity

Sequence | polyreactivity (PSR sort gate)
QVQLVESGGRLVQAGGSRRLSCAASGSIFYRNAKRSYRQAPGKERELVAAISGRGGSTNYADSVKGRFTISRDNAKNTVYLQMNSLKPEDTAVYYCNRYGVSNILVRGGYWGQGTQVTVSS | high polyreactivity
QVQLVESGGRLVQAVGSLRLRCAAAGRTFPVYAMGWYRQAPGKERELVAAIRGRSVRKYYADSVKGRFTISRDYAKNTVYLQMNSLKPEDTAVYYCAAYYLNPGMDYWGQGTQVTVSS | high polyreactivity
QVQLVESGGRLVQAVGSLRLSCAASGFTSHKYAMGWYRQAPGKERELVAAITSSGGRTYYADSVKGRFTISRDNAKNTVYFQTNSLKPEDTAVYYCNKLGRVGDAREYWGQGTQVTVSS | high polyreactivity
QVQLVESGGRLVQSGGSLRLSCAASGSIFVWNAMGWYRQAPGKERELVAAISYDGGSTYYADSVKGRFTISRDNAKNTVYLQMNSLKPEDTAVYYCAFEYVYWLSWYFQYDYWGQGTQVTVSS | low polyreactivity
QVQLVESGGSLVQAGGSLRLSCAASGSTFTKYVMGWYRQAPGKERELVAAISQSGTRTYYADSVKGRFTISRDNAKNTVYLQMNSLKPEDTAVYYCNKPVRNGSYHNRYNYWGQGTQVTVSS | high polyreactivity
QVQLVESGGSLVQAGGSLRLSCAATGRIFGPYAMGWYRQAPGKERELVATITWSGVSTYYADSVKGRFTLSRDNAKNTVYLQMNSLKPEDTAVYFCAADPQVIYRGFYQRDYWGQGTQVTVSS | low polyreactivity
QVQLVESGGVLGQAGVSLRLSCAASGRIFDGNTMGWYIQAPGQEREFVAAISGGGSTYYADSVKGRFTISRDNAKNTVYLQMNSLKPEDTAVYYCAATTGPVPLKGDYWGQGTQVTVSS | low polyreactivity
QVQLVESGGVLVQAAGSLRLSCAASGSIFDVNAMGWNRQAPGKEREFVAAISDSGGSTYYADSVKGRFTISRDNGKNTVYLQMNSLKPEDTAVYYCNADWSWYNYYDFDYWGQGTQVTVSS | low polyreactivity
QVQLVESGGVLVQAGGCLRLSCAASGSILDLNAMGWYRQAPGKERELVAAISLSGGTTYYADSVKGRFTISRDNAKNTVYLQMYSLKPEDTAVYYCNAGYFRPRAGNYVFGVESDYWGQGTQVTVSS | high polyreactivity
QVQLVESGGVLVQAGGIIRLSCAASGFIFVRYAMGWYRQAPGTERELVASIRSVGRTNYADSVKGRFTISRDNAKNTVYLQMNSLKPEDTAVYYCAAGYGSRSRPRGGYWGQGTQVTVSS | high polyreactivity
QVQLVESGGVLVQAGGSIRLTCAASGFTFSHYAMGWYRQAPGKERELVAAIRYSRASTYYADSVKGRFTISRYNAKNTVYLQMISVKPEDTSVYYCARPWWWAHHYDYDYWGQGSQVTVSS | low polyreactivity
QVQLVESGGVLVQAGGSLPLSCAASGSTFRPNAMGWYRQAPGKERELVDGISLNGTTTYYADSVKGRFTISRDNEKNTVYIQMNSLKPVDTAVYYCSADYQFGSAAEPYVFFDPEMDYWGQGTQVTGSS | low polyreactivity
QVQLVESGGVLVQAGGSLRLICAASGRIFGYYAMGWYRQAPGKERELVAAISNGGSTHYADSVKGRFTISRDNAKNTVYLQMNSLKPEDTAVYFCAAKASRVDWGYGYWGQATQVTVSS | high polyreactivity
QVQLVESGGVLVQAGGSLRLSCAASGFIFAKYAMGWYRQAPGKERELVAAINGRGTSTYYADSVKGRFTISRDNAKNTVYLQMNSLKPEDTAVYYCAARLRSGYHGQYDREDYWGQGTQVTVSS | high polyreactivity
QVQLVESGGVLVQAGGSLRLSCAASGFTFWLYAMGWYRQAPGKERELVAAISSGGGSTYYADSVKGRFTNSRDNAKNTVYLQMNSLKPEDTAVYYCNRYYYYGYDWGQGTQVTVSS | high polyreactivity
QVQLVESGGVLVQAGGSLRLSCAASGIIFYRNAMGWYRQAPGKERELVAAITSSGGRTYYADSVKGRFTISRDNAKNTVYLQMNSLKPEDTAVYYCAATRLYWKIFYGDGDYWGQGTQVTVSS | high polyreactivity
QVQLVESGGVLVQAGGSLRLSCAASGITFSRNAMGWYRQAPGKEMELVAAITWNGGRTYYADSVKGRFTISRDNAKNTVYLPMNSLKPEATAVYYCAADYDYPDYYAPSWPGYNYWGQVTQVTVSS | low polyreactivity
QVQLVESGGVLVQAGGSLRLSCAASGLICVPYSMGWYRQAPGKERELVAAISWRGGITYYADSVKGRFTISRDNAKNNVYLQMNSLKPEDTAVYYCAADGPYTGDGALDYWGQGTQVTVSS | high polyreactivity
QVQLVESGGVLVQAGGSLRLSCAASGRTFIFYAMGWYRQAPRKERELVAAITYSGTSTYYADSVKGRFTISRDNAKNTVYLQMNSLKPEDTAVYYCAKDGQRDANYYWGQGTQVTVSS | low polyreactivity
QVQLVESGGVLVQAGGSLRLSCAASGRTFPTYAMGCSRPAPGKERELVAAITSGGSTYYADTVKGRFTISRDKAKNTVYLQMTSLKPEDTAVYYCAAISTWGTKYDYWGQGTQVTVSS | high polyreactivity
QVQLVESGGVLVQAGGSLRLSCAASGRTFRYYVKGWYRRAPGKERELLASITSNGDSTYYADSVKGRFTISRDNAKNTVYLQMNSLKPEDTAVYYCAVRWRDYRGSYRGFEYWGQGTQVTVSS | high polyreactivity
